Assay results as given in FireProtDB (doi:10.1074/jbc.m705677200).

Details: Helicobacter pylori (strain ATCC 700392 / 26695), 25.2 °C, Urea, whole UniProt chain shown
[1] = pH 2, CD, Sodium phosphate 23 mM
[2] = pH 2, Fluorescence, Sodium phosphate 23 mM
[3] = pH 5, Fluorescence, Sodium acetate 16 mM

B1: Flavodoxin wild type, O25776 (protein)
chain: MGKIGIFFGTDSGNAEAIAEKISKAIGNAEVVDVAKASKEQFNSFTKVILVAPTAGAGDLQTDWEDFLGTLEASDFATKTIGLVGLGDQDTYSETFAEGIFHIYEKAKAGKVVGQTPTDGYHFEASKAVEGGKFVGLVIDEDNQDDLTDERISKWVEQVKGSFA
**Q.** Which results are given for B1?
**A.** denaturant m value [1]: 1.28 kcal/mol/M; denaturant midpoint (higher = more stable) [1]: 0.89 M; unfolding free energy [1]: 1.14 kcal/mol; denaturant m value [2]: 1.35 kcal/mol/M; denaturant midpoint (higher = more stable) [2]: 0.84 M; unfolding free energy [2]: 1.13 kcal/mol; denaturant m value (pH 5, CD, Sodium acetate 16 mM): 2.24 kcal/mol/M; denaturant midpoint (higher = more stable) (pH 5, CD, Sodium acetate 16 mM): 4.1 M; unfolding free energy (pH 5, CD, Sodium acetate 16 mM): 9.2 kcal/mol; denaturant m value [3]: 2.32 kcal/mol/M; denaturant midpoint (higher = more stable) [3]: 4.04 M; unfolding free energy [3]: 9.37 kcal/mol; denaturant m value (pH 7, CD, MOPS 30 mM): 2.11 kcal/mol/M; denaturant midpoint (higher = more stable) (pH 7, CD, MOPS 30 mM): 2.94 M; unfolding free energy (pH 7, CD, MOPS 30 mM): 6.2 kcal/mol; denaturant m value (pH 7, Fluorescence, MOPS 30 mM): 2.18 kcal/mol/M; denaturant midpoint (higher = more stable) (pH 7, Fluorescence, MOPS 30 mM): 3.01 M; unfolding free energy (pH 7, Fluorescence, MOPS 30 mM): 6.56 kcal/mol; denaturant m value (pH 9, CD, CHES 35 mM): 2.19 kcal/mol/M; denaturant midpoint (higher = more stable) (pH 9, CD, CHES 35 mM): 2.16 M; unfolding free energy (pH 9, CD, CHES 35 mM): 4.73 kcal/mol; denaturant m value (pH 9, Fluorescence, CHES 35 mM): 2.03 kcal/mol/M; denaturant midpoint (higher = more stable) (pH 9, Fluorescence, CHES 35 mM): 2.21 M; unfolding free energy (pH 9, Fluorescence, CHES 35 mM): 4.5 kcal/mol
